Reference: paper PMC4734687, “Peptide-Based Optical uPAR Imaging for Surgery: In Vivo Testing of ICG-Glu-Glu-AE105” (PLoS ONE, 2016)

Key:
[1] = test system: U87MG human glioblastoma xenograft tumors; experiment: Optical imaging of U87MG xenograft mice 15 h post injection (tumour to background ratio); format: in vivo, mouse; details: IVIS Lumina XR, 15 h post i.v. injection of 10 nmol; for Uptake in the tumor (in words): U87MG xenograft mice, n = 5
Experimental: All animal experiments were performed under a protocol approved by the Animal Research Committee of the Danish Ministry of Justice (2012-15-2934-00064). 5 ×10^6 U87MG cells were suspended in 200 ul PBS and inoculated in both flanks of 6 weeks old nude NMRI female mice (24–28 g; Taconic Europe, Lille Skensved, Denmark). All mice were housed in groups with 12 h light/dark cycle and food and water was available ad libitum. When the tumours reached approx. 500 mm^3 in size the mice were enrolled in the optical imaging protocol.
(§1) 10 nmol of ICG-Glu-Glu-AE105 or ICG were administered to 5 mice each via tail vein injections. 15 h post injection the mice were anaesthetized with 2% isoflurane a full-body optical scan recorded using the acquisition mode outlined above.
After imaging with IVIS Lumina XR the anesthetized mice were moved to a surgical table and real-time tumor imaging with a Fluobeam®800 NIR-camera was performed (Fluoptics, Grenoble, France). The camera was connected to a standard laptop to allow imaging, adjustments of camera functions and recording of images and video sequences. Fluobeam®800 works with a 800 nm excitation laser optimised for ICG imaging.
The TBR values were calculated as tumor-signal divided by background-signal by drawing a ROI over each tumor and place the background ROI in an area with constant background signal. Images from IVIS Lumina XR were processed in the software Living Image, while the images from Fluobeam®800 was processed in ImageJ.

[2] = test system: nude NMRI mice; experiment: Observation of adverse effects in imaged mice; format: in vivo, mouse; details: 10 nmol i.v., nude NMRI mice with U87MG xenografts, n = 5 per group
Experimental: as §1

[3] = biological target: uPAR (Homo sapiens, UniProt Q03405); experiment: Surface plasmon resonance solution competition of the uPA•uPAR interaction (Biacore3000); details: indirect solution competition for uPA binding, purified uPAR, non-linear regression, read-out: IC50 as competitive inhibitor of the uPA•uPAR interaction
Experimental: The IC50-value for ICG-Glu-GLU-AE105 as competitive inhibitor of the uPA•uPAR interaction was measured by surface plasmon resonance in a Biacore3000 assay platform as previously published. Subsequent fitting to the binding isotherms by non-linear regression provided the IC50-value.

[4] = Plasma stability of ICG-Glu-Glu-AE105 by HPLC; format: in vitro ADME; details: mouse plasma 150 μl, 5 μg in DMSO, 37°C, acetonitrile precipitation, HPLC absorbance area at 780 nm
Experimental: ICG-AE105 (5 μg in DMSO) was added to 150 μl mouse plasma and the solution was incubated at 37°C for either 0, 1, 5 or 30 minutes. After incubation, acetonitrile (200 μl) was added followed by centrifugation at 3500 rpm for 4 minutes. The supernatant was collected, diluted and passed through a 0.45 μm filter. The filtered solution was analyzed on a Dionex UltiMate 300 HPLC using an Onyx Monolithic column (Phenomenex, 50x4.6 mm) and with a flow of 1.5 ml/min. The HPLC mobile phase was 0.1% TFA in H2O:MeCN 90:10 (A) and 0.1% TFA in H2O:MeCN 10:90 (B) and the gradient program: 0–2 min 10% B, 2–20 min 10–100% B, 20–21 100% B, 21–23 min 100–10%B, 23–30 min 10% B.
Each plasma sample was analyzed by HPLC and the absorbance area at 780 nm was calculated. This value was compared to the standard sample and the plasma sample at 0 min to calculated the percentage of intact ICG-AE105 recovered in the supernatant (see Table 1).

[5] = biological target: T1, human uPAR in U87MG tumor tissue sections (Homo sapiens, UniProt Q03405); experiment: Ex vivo fluorescent imaging and uPAR immunohistochemistry of tumor sections; details: 4 μm paraffin tumor sections, Odyssey scanner 800 nm, antibody R2 against uPAR
T1 construct: Ex Vivo histology and fluorescence images of s.c. U87MG tumor tissue sections; from tissue; host or cells: s.c. U87MG human glioblastoma xenograft tumors grown in mice
Experimental: Tissue was formalin fixed in 4% formaldehyde in 24 h and then embedded in paraffin. For all stainings a 4 μm slice tissue were used. Before any staining the sliced tissue were imaged with an Odyssey scanner (LI-COR Biosciences, Lincoln, Nebraska) at 800 nm.
The tissue was incubated for one hour at 60° before being deparaffinized. Thereafter, tissue was pre-treated with proteinase K (Dako, Glostrup, Denmark) for 6 min. The staining was performed with the Dako ARK kit, with the antibody R2 [24] against uPAR.

[6] = In vitro comparison of fluorescence intensity of ICG and conjugated probe; format: physicochemical
Experimental: The UV-vis absorption spectra were recorded on a Perkin-Elmer Lambda 1050 UV/vis/NIR spectrometer double beam spectrometer using the HBC solvent as baseline. The spectra were recorded in 1 cm path length cuvettes with ICG and ICG-AE105 present in the 10–50 μM range. Excitation and emission spectra and lifetimes were measured using FluoroTime 300 (PicoQuant, Berlin, Germany) system. The spectra were measured through excitation at 725 nm using a Xe-lamp excitation source. The excitation and emission measurements were measured in 1 cm cuvettes at 90° with respect to the excitation light. In the fluorescence measurements the absorbance of the samples were below 0.1 at the maximum of the lowest energy absorption band to avoid inner filter effects. After each fluorescence measurement the absorption spectra were recorded in order to verify that no photobleaching of the sample had occurred during the fluorescence measurement. All excitation and fluorescence spectra were corrected for the wavelength-dependent sensitivity of the detection from 500–900 nm.

[7] = biological target: Urokinase-type plasminogen activator receptor (uPAR) (human) (UniProt Q03405)
Chain of Urokinase-type plasminogen activator receptor (uPAR) (human) (Q03405 23-305): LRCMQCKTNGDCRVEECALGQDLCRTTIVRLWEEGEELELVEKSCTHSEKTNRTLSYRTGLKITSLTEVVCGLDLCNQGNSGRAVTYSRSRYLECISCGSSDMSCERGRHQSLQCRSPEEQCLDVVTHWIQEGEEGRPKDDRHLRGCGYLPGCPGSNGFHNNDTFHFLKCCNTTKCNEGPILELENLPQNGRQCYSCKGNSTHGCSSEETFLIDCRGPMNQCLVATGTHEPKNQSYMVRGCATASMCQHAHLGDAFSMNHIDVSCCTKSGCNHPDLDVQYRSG

T1 sequence (Q03405 23-335): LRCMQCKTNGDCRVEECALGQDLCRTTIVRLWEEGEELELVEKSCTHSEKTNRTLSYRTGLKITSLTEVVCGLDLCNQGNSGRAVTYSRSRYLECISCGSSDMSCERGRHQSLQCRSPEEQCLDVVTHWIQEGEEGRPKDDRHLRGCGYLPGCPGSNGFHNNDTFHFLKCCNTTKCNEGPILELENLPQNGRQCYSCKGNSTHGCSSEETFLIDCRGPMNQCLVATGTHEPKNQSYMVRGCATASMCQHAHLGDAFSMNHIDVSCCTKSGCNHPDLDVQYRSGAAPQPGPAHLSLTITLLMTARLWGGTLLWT

Row | Compound | Tumour to background ratio (TBR) ([1]; U87MG s.c. xenograft mice, n = 5 mice (n = 10 tumors), mean) | Uptake in the tumor (in words) [1] | Adverse effects observed in mice [2] | IC50 [3] [nM] | Intact ICG-AE105 recovered from supernatant (%) Compared to standard ([4]; 0 min incubation) | Intact ICG-AE105 recovered from supernatant (%) Compared to standard ([4]; 1 min incubation) [%] | Intact ICG-AE105 recovered from supernatant (%) Compared to standard ([4]; 1 min incubation, listed as ICG-AE105) | remaining at 1 min, 33 µg/mL ([4]; 1 min incubation, read-out: Intact ICG-AE105 recovered from supernatant (%) Compared to plasma sample at 0 min) [%] | Intact ICG-AE105 recovered from supernatant (%) Compared to plasma sample at 0 min ([4]; 5 min incubation) | Intact ICG-AE105 recovered from supernatant (%) Compared to standard ([4]; 5 min incubation) [%] | Intact ICG-AE105 recovered from supernatant (%) Compared to standard ([4]; 5 min incubation, listed as ICG-AE105) | Intact ICG-AE105 recovered from supernatant (%) Compared to plasma sample at 0 min ([4]; 30 min incubation) | Intact ICG-AE105 recovered from supernatant (%) Compared to standard ([4]; 30 min incubation) [%] | Intact ICG-AE105 recovered from supernatant (%) Compared to standard ([4]; 30 min incubation, listed as ICG-AE105) | Co-localization of probe fluorescence with uPAR immunohistochemistry staining [5] | Decrease in fluorescence intensity of conjugated probe compared with ICG [6] [fold] | mean decrease of the max fluorescence signal of the xenograft tumours when 6.7 nmol uPA is injected together with 10 nmol probe, against probe alone [7] [%]
1 | CC1(C)C(/C=C/C=C/C=C/C=C2\N(CCCCS(=O)(=O)O)c3ccc4ccccc4c3C2(C)C)=[N+](CCCCS(=O)(=O)[O-])c2ccc3ccccc3c21 [ICG, indocyanine green] | 1.04±0.04 | No uptake | No adverse effects | – | – | – | – | – | – | – | – | – | – | – | – | – | –
2 | CC(C)C[C@H](NC(=O)[C@H](Cc1ccc(O)cc1)NC(=O)[C@@H](CCCNC(=N)N)NC(=O)[C@@H](CO)NC(=O)[C@H](Cc1ccccc1)NC(=O)[C@H](CC1CCCCC1)NC(=O)[C@H](CC(=O)O)NC(=O)[C@H](CCC(=O)O)NC(=O)[C@H](CCC(=O)O)NC(=O)CCCCC[N+]1=C(C=CC=CC=CC=C2N(CCCCS(=O)(=O)[O-])c3ccc4ccccc4c3C2(C)C)C(C)(C)c2c1ccc1ccccc21)C(=O)N[C@@H](Cc1c[nH]c2ccccc12)C(=O)N[C@@H](CO)C(=O)O [ICG-Glu-Glu-AE105] | – | high uptake | No adverse effects | 134 | 97,2% | 92.3 | 92,3% | 95 | 89,3% | 86.7 | 86,7% | 84,1% | 81.7 | 81,7% | co-localization of the uPAR staining and the fluorescent probe signal was observed | 2 | –
3 | ICG-Glu-Glu-AE105 (peptide) | – | – | – | – | – | – | – | – | – | – | – | – | – | – | – | – | 46.8
